Laboratory results from the supplement of paper PMC7125110.
± gives the standard error. This sample holds only a part of the variants without activity.

B1: glmS ribozyme (parent)
chain: AUAAAAGCGCCAGAACUACAGAAAUGUAGUUGACGAGGAGGAGGUUUAUCGAAUUUUCGGCGGAUGCCUCCAAA

Columns and labels:
Settings in all cases: with glucosamine-6-phosphate
glucosamine-6-phosphate [1] = variants of: B1; assay: self-cleavage kobs at 640 uM GlcN6P; higher = faster cleavage; RNA array
How it was run: (§1)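 Barcoded ribozyme variants on sequenced MiSeq chips were transcribed in situ by E. coli RNA polymerase and followed at 37 °C through a hybridised Cy3 probe. Glucosamine-6-phosphate at 40 μM to 10 mM in HEPES/KCl/Mg(OAc)2 buffer was flowed in, and tiles were imaged over ~14 h. Signals were normalised to baseline and to non-cleaving reference variants, and per-tile medians were fit to one- or two-exponential decays to give kobs. Weighted Michaelis–Menten fits across concentrations gave kcat and KM.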

glucosamine-6-phosphate [2] = variants of: B1; assay: self-cleavage kobs at 2500 uM GlcN6P; higher = faster cleavage; RNA array
How it was run: as §1

glucosamine-6-phosphate [3] = variants of: B1; assay: self-cleavage kobs at 10000 uM GlcN6P; higher = faster cleavage; RNA array
How it was run: as §1

Variant	self-cleavage kobs at 640 uM GlcN6P (glucosamine-6-phosphate [1]) [s⁻¹]	self-cleavage kobs at 2500 uM GlcN6P (glucosamine-6-phosphate [2]) [s⁻¹]	self-cleavage kobs at 10000 uM GlcN6P (glucosamine-6-phosphate [3]) [s⁻¹]
A12G A39C A42C	< 1e-05	–	–
G13U C16U G29A	0.000601 ± 0.00017	–	–
C10U A12C G60U	< 1e-05	–	–
A33G U57A	< 1e-05	< 1e-05	–
A6G U30G G43C G60U C71G	< 1e-05	–	–
C16A G38U U47A	< 1e-05	–	–
G7U A12U G40U U55C C71A	< 1e-05	< 1e-05	–
G7U G35U G38C	< 1e-05	< 1e-05	< 1e-05
C11A A15G G29A	< 1e-05	–	–
G38U G43U U57C C70U	< 1e-05	–	–
G32U A42C C58U	< 1e-05	< 1e-05	–
A15U A33G G41U	< 1e-05	–	–
A6U A15G C19A A33C C68G	< 1e-05	< 1e-05	–
G13A C34A C67U C70G	< 1e-05	< 1e-05	–
A14C G44C U55C	< 1e-05	–	–
A6U A15G G62U U69G	0.000197 ± 5.9e-05	–	–
G32U A33G G38A	< 1e-05	–	–
G29A G43A U56A	< 1e-05	–	–
C10U A15C G43U G63U	< 1e-05	< 1e-05	–
G9A A14G G38U	< 1e-05	–	< 1e-05
A6C U45C G51C U65G C70G	< 1e-05	< 1e-05	–
C11A A14C A52U	< 1e-05	–	–

Variant	self-cleavage kobs at 640 uM GlcN6P (glucosamine-6-phosphate [1]) [s⁻¹]	self-cleavage kobs at 2500 uM GlcN6P (glucosamine-6-phosphate [2]) [s⁻¹]	self-cleavage kobs at 10000 uM GlcN6P (glucosamine-6-phosphate [3]) [s⁻¹]
G29C C70G	8e-05 ± 1.4e-05	2.33e-05 ± 8.6e-06	4e-05 ± 1.4e-05
A15C C34U G66C	< 1e-05	< 1e-05	–
G43U G62C C67A	< 1e-05	< 1e-05	< 1e-05
U55G U65C C70U	0.00017 ± 3.7e-05	0.000458 ± 0.00012	–
G7C A42U	< 1e-05	–	–
U46G C67U C71A	6.72e-05 ± 2e-05	–	–
G35U U47A	< 1e-05	< 1e-05	–
G44A U46C U49C U54G C67G	< 1e-05	< 1e-05	–
G41A G44A G60A	< 1e-05	–	–
C8G C16G G38A	< 1e-05	–	–
A6G C16A G35U A48U	< 1e-05	< 1e-05	–
C8A G32A A36C G41A A42U	< 1e-05	< 1e-05	–
A12U A15U C68G	8.06e-05 ± 2.7e-05	–	–
C11A G37U A64G	< 1e-05	–	–
C10G A12C G13A A14G A39U C70G	< 1e-05	–	–
C16G U46A U49G C67G U69G C71G	< 1e-05	–	–
A12C G32A U54G	2.31e-05 ± 1.1e-05	3.03e-05 ± 9.9e-06	0.00014 ± 2.3e-05
C19A A48U	6.44e-05 ± 2.3e-05	–	–
U47C U55A	0.00113 ± 0.00019	0.00273 ± 0.00077	0.00496 ± 0.0011
C10U G32C G35A	< 1e-05	< 1e-05	–
A6G C58U U69A	0.000521 ± 0.00019	–	–
C11G U30A A33C	< 1e-05	< 1e-05	–

Variant	self-cleavage kobs at 640 uM GlcN6P (glucosamine-6-phosphate [1]) [s⁻¹]	self-cleavage kobs at 2500 uM GlcN6P (glucosamine-6-phosphate [2]) [s⁻¹]	self-cleavage kobs at 10000 uM GlcN6P (glucosamine-6-phosphate [3]) [s⁻¹]
G35U G51A G63A C67A	< 1e-05	< 1e-05	–
C8A U57G	< 1e-05	< 1e-05	–
C8G C11G A14C A39G C50G	8.19e-05 ± 2.8e-05	–	–
A14U A48U G51A A52G	< 1e-05	< 1e-05	–
A15C C16U U56C	7.03e-05 ± 1.8e-05	0.000249 ± 7.3e-05	–
C8U G9U C68A	< 1e-05	< 1e-05	–
A33U G43A A48U C61U C70U	< 1e-05	< 1e-05	–
C8U C11U U55A G62A	< 1e-05	< 1e-05	–
C16G A48U C50G C70A	5.34e-05 ± 2.6e-05	–	–
G7C G38C A48C	< 1e-05	< 1e-05	–
G35U U45G C61A	< 1e-05	< 1e-05	–
A33C G66C	< 1e-05	–	–
A42C U47G U57C	< 1e-05	< 1e-05	–
A6U G35C C68G C70U	0.000713 ± 0.00023	–	–
A14C G43U U56A C68U	9.14e-05 ± 2.6e-05	0.000133 ± 3.7e-05	–
G35A A36C C61G A64G	< 1e-05	–	–
U55G G66C C70U	0.000456 ± 0.0001	0.000343 ± 8.7e-05	–
G35C A36C A42C G43C G51A	< 1e-05	< 1e-05	–
G35U G59U G60C G62U	< 1e-05	–	–
G43A G44C C67A C70A	< 1e-05	< 1e-05	–
C8G U55C C71A	< 1e-05	< 1e-05	–
C11U G32C C50G A52U	< 1e-05	–	–

Variant	self-cleavage kobs at 640 uM GlcN6P (glucosamine-6-phosphate [1]) [s⁻¹]	self-cleavage kobs at 2500 uM GlcN6P (glucosamine-6-phosphate [2]) [s⁻¹]	self-cleavage kobs at 10000 uM GlcN6P (glucosamine-6-phosphate [3]) [s⁻¹]
G35A U46C U65A	< 1e-05	–	< 1e-05
U31C A53U C67U	0.000239 ± 6.6e-05	0.00045 ± 9.3e-05	–
A12U A48G U49G	6.79e-05 ± 3.2e-05	–	–
G43U U54G C58A C67U	< 1e-05	–	–
G7A A39G A64C C71U	< 1e-05	< 1e-05	–
G41C C50G G51C	< 1e-05	–	–
G40C U56C A64C C70A	< 1e-05	–	–
U46G G51U C71U	< 1e-05	< 1e-05	–
A12C A15G A39C	5.62e-05 ± 1.6e-05	0.000163 ± 4.9e-05	–
U30G G32A C68U	7.55e-05 ± 3.7e-05	–	–
U31A C58G A64C C68U	0.00011 ± 3.5e-05	8.36e-05 ± 2.2e-05	–
G35A C58A	< 1e-05	< 1e-05	–
A6C G41A C68A U69C	< 1e-05	–	< 1e-05
C10U G35C G60A	< 1e-05	< 1e-05	–
G29C A53G G63U	< 1e-05	–	–
G32U U55A C71A	9.04e-05 ± 2.8e-05	8.28e-05 ± 3.5e-05	–
A39G G40U C50U	< 1e-05	< 1e-05	< 1e-05
G7A C16U C71A	< 1e-05	–	–
C11A U46C	< 1e-05	–	–
C10U G32A U49A	< 1e-05	–	–
U45C A53C	9.37e-05 ± 1.6e-05	–	0.000403 ± 0.00014
G13C A39C C61A C70U	< 1e-05	–	–

Variant	self-cleavage kobs at 640 uM GlcN6P (glucosamine-6-phosphate [1]) [s⁻¹]	self-cleavage kobs at 2500 uM GlcN6P (glucosamine-6-phosphate [2]) [s⁻¹]	self-cleavage kobs at 10000 uM GlcN6P (glucosamine-6-phosphate [3]) [s⁻¹]
G38C A42G U49G A52G G63C	< 1e-05	< 1e-05	–
A14U G29C G51U	< 1e-05	–	–
C10G G40C C71G	< 1e-05	< 1e-05	–
G35C G40U A52U G63U	< 1e-05	< 1e-05	–
A14U G29C A48G U65A	< 1e-05	–	–
C11A A39G	0.000101 ± 2.7e-05	0.000121 ± 2.7e-05	0.000422 ± 7.8e-05
G37C U45G G63U	< 1e-05	< 1e-05	–
G40A U45C C50A G60A C67A	< 1e-05	< 1e-05	–
A15C G37A A42G	8.69e-05 ± 3e-05	0.000171 ± 4.6e-05	–
A52C U56C C67U	< 1e-05	–	–
G7U C16U U30G	< 1e-05	–	–
C11U G38A C67G	7.1e-05 ± 3.3e-05	–	–
C8A G13A C61U G62C C70A	< 1e-05	< 1e-05	–
G38A G43U G51C	< 1e-05	< 1e-05	–
A12G A39G C50A	< 1e-05	–	–
U31C G37A A53G	5.04e-05 ± 8.3e-06	0.000126 ± 2e-05	–
C11G U45C U46C C61U	< 1e-05	< 1e-05	–
U47A U49G	3.82e-05 ± 1.4e-05	7.57e-05 ± 1.8e-05	–
A14U C16A G35C G43C A53C C61U	< 1e-05	< 1e-05	–
C11U A53U C70G	0.000189 ± 5.3e-05	–	–
A6G C16G G32A	< 1e-05	< 1e-05	–
A6G C11A G59U G60C	< 1e-05	–	–

Variant	self-cleavage kobs at 640 uM GlcN6P (glucosamine-6-phosphate [1]) [s⁻¹]	self-cleavage kobs at 2500 uM GlcN6P (glucosamine-6-phosphate [2]) [s⁻¹]	self-cleavage kobs at 10000 uM GlcN6P (glucosamine-6-phosphate [3]) [s⁻¹]
G29U G51A A64U U69G	0.000114 ± 3.7e-05	0.000294 ± 9.7e-05	–
G9A G35A C58U C71U	< 1e-05	–	–
G9U A14C A64U C68A	< 1e-05	< 1e-05	–
G35A C50U G62C C68G	< 1e-05	–	–
G13U A14G G29C U49A	< 1e-05	–	–
C10G A12U U56G C71U	< 1e-05	–	–
A39U U49C C68G	< 1e-05	< 1e-05	< 1e-05
U31A A33U G44U U69C	< 1e-05	–	–
C10A G43C A53U	< 1e-05	< 1e-05	–
C11G G44U U46G U47A G59A A64U C67A	< 1e-05	–	–
C34U G43U A53G U55A A64U	< 1e-05	< 1e-05	–
C11G G43C U45C	< 1e-05	< 1e-05	–
A42G G51U C70U	< 1e-05	–	–
U30C U45G U56G C68G	< 1e-05	< 1e-05	–
A6U G44U U49G	< 1e-05	–	–
C34A G51A A52G	< 1e-05	< 1e-05	–
U31C G38U A39C G43U G62A U69G	< 1e-05	–	–
C34U U57A	< 1e-05	< 1e-05	–
G13U U30C C61A	< 1e-05	–	–
C11U A48G C68U	< 1e-05	–	–
A12G G38C C68G	< 1e-05	< 1e-05	–
